Experimental data as given in article PMC11077089, “Molecular basis of A. thaliana KEOPS complex in biosynthesizing tRNA t6A”.

Target: T1, KAE1;BUD32;CGI121;PCC1 (Arabidopsis thaliana;Arabidopsis …, UniProt O49653;Q94K14;Q6NMZ4;Q8GWD7 1-353;1-226;1-172;1-96, |||)
T1 sequence 1: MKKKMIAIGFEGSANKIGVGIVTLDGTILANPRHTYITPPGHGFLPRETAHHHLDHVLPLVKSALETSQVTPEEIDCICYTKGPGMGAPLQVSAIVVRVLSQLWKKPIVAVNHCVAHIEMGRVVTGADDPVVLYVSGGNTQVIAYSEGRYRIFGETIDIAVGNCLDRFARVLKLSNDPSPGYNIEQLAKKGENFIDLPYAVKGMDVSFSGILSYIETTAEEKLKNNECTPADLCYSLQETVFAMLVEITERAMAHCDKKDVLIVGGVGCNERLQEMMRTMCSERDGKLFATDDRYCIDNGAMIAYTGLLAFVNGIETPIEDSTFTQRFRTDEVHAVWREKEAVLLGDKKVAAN
T1 sequence 2: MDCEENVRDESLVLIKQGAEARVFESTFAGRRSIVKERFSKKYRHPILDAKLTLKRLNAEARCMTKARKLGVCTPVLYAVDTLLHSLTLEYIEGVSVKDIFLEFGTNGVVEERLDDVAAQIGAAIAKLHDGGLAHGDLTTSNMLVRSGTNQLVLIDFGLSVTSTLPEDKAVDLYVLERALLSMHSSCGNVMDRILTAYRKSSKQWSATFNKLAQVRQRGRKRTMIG
T1 sequence 3: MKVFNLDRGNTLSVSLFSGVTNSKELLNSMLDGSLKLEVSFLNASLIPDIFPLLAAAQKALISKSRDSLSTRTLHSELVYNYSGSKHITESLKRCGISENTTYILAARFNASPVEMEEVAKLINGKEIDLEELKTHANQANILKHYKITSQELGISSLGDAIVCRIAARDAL
T1 sequence 4: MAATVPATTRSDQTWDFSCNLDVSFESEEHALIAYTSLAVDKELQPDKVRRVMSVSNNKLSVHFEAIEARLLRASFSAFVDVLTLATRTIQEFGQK
Assay: EMSA; 20 uM each; MST: 20 mM PBS pH 7.5, 300 mM NaCl, 0.05% Tween 20, 25 C, 50 nM RNA; EMSA: 20 mM Tris-HCl pH 7.5, 300 mM NaCl, 5 mM b-mercaptoethanol, 20% glycerol, agarose gel in Tris-glycine pH 8.0 (8.5 for FAM-RNA), 4 C
Conditions: protein: recombinant;recombinant;recombinant;recombinant; tags: none (6His on partner PCC1);none (6His on partner CGI121);6His (C-term);6His (C-term); chain copies: 2;2;2;2; tRNA cloverleaf

Binder	binding result
tRNAArgUCU (structured_RNA) RNA: GCGCCCGUGGCCUAAUGGAUAAGGCGUUUGACUUCUAAUCAAACGAUUGUGGGUUCGAGUCCCACCGGGCGUGCCA	binds
tRNAThrCGU (structured_RNA) RNA: GCCUCCGUAGCAUAGUGGUAUUGCGUUCGCUUCGUAAGCGAAAGGUCGUGAGUUCGAUCCUCACCGUAGGCUCCA	binds
tRNASerGCU (structured_RNA) RNA: GUCGCUUUGGCCGAGUGGUUAAGGCGUGUUCCUGCUAAGUACAUGGGGUUUCCCCGCGAGAGUUCGAAUCUGUCAGGCGACGCCA	binds
tRNALysUUU (structured_RNA) RNA: GCCGUCUUAGCUCAGCGGUAGAGCGCGUGGCUUUUAACCACGUGGCCGUGGGUUCGAUCCCCACAGACGGCGCCA	binds
tRNAIleAAU (structured_RNA) RNA: GGCCUAUUAGCUCAGUUGGUUAGAGCGUCGUGCUAAUAACGCGAAGGUCACAGGUUCGAUCCCUGUAUAGGCCACCA	binds
tRNAIleUAU (structured_RNA) RNA: GCUCCCGUAGCUCAGUUGGUUAGAGCGUUGGUCUUAUGAGCCGAAGGUCGCGGGUUCGAGCCCCGCCGGAAGCACCA	binds
tRNAAsnGUU (structured_RNA) RNA: GCUGGAAUAGCUCAGUAGGUUUAGAGCGUGUGGCUGUUAACCUCAAGGUCGGAGGUUCGACCCCUCCUUUCAGCGCCA	binds
